Publication PMC6862324

Target: T1, FLAG-tagged human NLRP1 (human), Q9C000
T1 chain: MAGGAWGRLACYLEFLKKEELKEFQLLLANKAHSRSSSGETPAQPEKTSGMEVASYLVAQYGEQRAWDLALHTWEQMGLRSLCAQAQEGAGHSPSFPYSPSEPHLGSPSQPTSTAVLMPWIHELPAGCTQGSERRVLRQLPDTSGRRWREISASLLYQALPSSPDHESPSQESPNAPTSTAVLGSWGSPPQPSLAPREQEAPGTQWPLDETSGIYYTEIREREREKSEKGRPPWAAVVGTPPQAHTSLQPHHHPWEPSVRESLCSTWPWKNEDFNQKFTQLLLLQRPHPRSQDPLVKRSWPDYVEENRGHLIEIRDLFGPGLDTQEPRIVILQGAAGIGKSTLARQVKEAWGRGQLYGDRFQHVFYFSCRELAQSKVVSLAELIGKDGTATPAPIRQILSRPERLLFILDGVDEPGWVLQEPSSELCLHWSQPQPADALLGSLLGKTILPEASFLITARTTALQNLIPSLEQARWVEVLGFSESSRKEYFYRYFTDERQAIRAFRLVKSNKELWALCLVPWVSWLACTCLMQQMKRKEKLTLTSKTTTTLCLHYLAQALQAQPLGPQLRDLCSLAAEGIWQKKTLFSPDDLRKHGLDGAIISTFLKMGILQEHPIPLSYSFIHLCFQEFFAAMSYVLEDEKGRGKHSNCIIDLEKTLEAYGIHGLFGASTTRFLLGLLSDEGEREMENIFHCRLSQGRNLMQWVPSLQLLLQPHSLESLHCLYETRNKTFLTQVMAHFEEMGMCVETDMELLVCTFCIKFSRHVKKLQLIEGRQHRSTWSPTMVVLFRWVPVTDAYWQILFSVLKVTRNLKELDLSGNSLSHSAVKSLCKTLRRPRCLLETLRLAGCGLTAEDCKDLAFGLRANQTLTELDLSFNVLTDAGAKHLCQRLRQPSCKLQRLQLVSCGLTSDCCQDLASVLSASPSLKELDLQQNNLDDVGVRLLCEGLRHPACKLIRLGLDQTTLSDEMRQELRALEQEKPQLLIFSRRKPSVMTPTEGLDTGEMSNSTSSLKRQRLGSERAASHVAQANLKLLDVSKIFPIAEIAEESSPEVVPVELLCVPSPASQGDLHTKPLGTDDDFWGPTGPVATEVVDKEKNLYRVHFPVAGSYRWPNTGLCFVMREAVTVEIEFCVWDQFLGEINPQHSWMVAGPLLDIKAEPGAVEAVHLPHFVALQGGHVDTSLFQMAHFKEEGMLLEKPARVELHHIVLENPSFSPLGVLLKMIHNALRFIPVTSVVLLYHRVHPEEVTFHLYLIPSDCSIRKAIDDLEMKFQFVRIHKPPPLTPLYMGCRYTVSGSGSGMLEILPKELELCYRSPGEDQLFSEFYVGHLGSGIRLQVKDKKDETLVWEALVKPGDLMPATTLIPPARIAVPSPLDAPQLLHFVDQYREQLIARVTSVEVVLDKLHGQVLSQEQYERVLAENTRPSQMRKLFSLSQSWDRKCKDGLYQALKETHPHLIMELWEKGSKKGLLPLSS
Test: co-IP
Details: remark: other sources report otherwise

B1: endogenous DPP9, Q86TI2 1-863 (enzyme)
chain: MATTGTPTADRGDAAATDDPAARFQVQKHSWDGLRSIIHGSRKYSGLIVNKAPHDFQFVQKTDESGPHSHRLYYLGMPYGSRENSLLYSEIPKKVRKEALLLLSWKQMLDHFQATPHHGVYSREEELLRERKRLGVFGITSYDFHSESGLFLFQASNSLFHCRDGGKNGFMVSPMKPLEIKTQCSGPRMDPKICPADPAFFSFINNSDLWVANIETGEERRLTFCHQGLSNVLDDPKSAGVATFVIQEEFDRFTGYWWCPTASWEGSEGLKTLRILYEEVDESEVEVIHVPSPALEERKTDSYRYPRTGSKNPKIALKLAEFQTDSQGKIVSTQEKELVQPFSSLFPKVEYIARAGWTRDGKYAWAMFLDRPQQWLQLVLLPPALFIPSTENEEQRLASARAVPRNVQPYVVYEEVTNVWINVHDIFYPFPQSEGEDELCFLRANECKTGFCHLYKVTAVLKSQGYDWSEPFSPGEDEFKCPIKEEIALTSGEWEVLARHGSKIWVNEETKLVYFQGTKDTPLEHHLYVVSYEAAGEIVRLTTPGFSHSCSMSQNFDMFVSHYSSVSTPPCVHVYKLSGPDDDPLHKQPRFWASMMEAASCPPDYVPPEIFHFHTRSDVRLYGMIYKPHALQPGKKHPTVLFVYGGPQVQLVNNSFKGIKYLRLNTLASLGYAVVVIDGRGSCQRGLRFEGALKNQMGQVEIEDQVEGLQFVAEKYGFIDLSRVAIHGWSYGGFLSLMGLIHKPQVFKVAIAGAPVTVWMAYDTGYTERYMDVPENNQHGYEAGSVALHVEKLPNEPNRLLILHGFLDENVHFFHTNFLVSQLIRAGKPYQLQIYPNERHSIRCPESGEHYEVTLLHFLQEYL
- fold reduction of binding with VbP (10 uM, in the lysate) against DMSO: 2 fold
